Laboratory results reported in the DeepSol protein solubility set.

Assay: soluble on expression in E. coli; label from the status in PepcDB or PDB records

Q: For “MLKLPPLSLYIHIPWCVQKCPYCDFNSHALKGDVPHQEYVDHLLADLDADLPLAGGRALHSIFIGGGTPSLLSAEAMQALLDGVRARIPLTPDAEITMEANPGTVEADRFSGYQRAGINRISIGVQSFDPQKLTRLGRIHGPEEAKRAAQLATGLKLRSFNLDLMHGLPDQSLDEALDDLRQAIALNPPHLSWYQLTIEPNTLFSSRPPTLPDDDALWDIYEQGHALLSAAGYEQYETSAYAKPGYQCQHNLNYWRFGDYLGIGCGAHGKLTFSDGHILRTVKVRHPRGYMQGTYMDKQHDVANDDRPFEFFMNRFRLLEAAPRADFTAYTGLEEHSIRPQLDQALAQGYLTETATHWQITEHGKLFLNSLLELFLAEELEHHHHHH”, which “soluble on expression in E. coli” value is on record?
A: Its value is “not soluble”.

Q: For “PLGSMPFHAEPLKPSDEIDMDLGHSVAAQKFKEIREVLEGNRYWARKVTSEEPEFMAEQVKGQAPNFLWIGCADSRVPEVTIMARKPGDVFVQRNVANQFKPEDDSSQALLNYAIMNVGVTHVMVVGHTGCGGCIAAFDQPLPTEENPGGTPLVRYLEPIIRLKHSLPEGSDVNDLIKENVKMAVKNVVNSPTIQGAWEQARKGEFREVFVHGWLYDLSTGNIVDLNVTQGPHPFVDDRVPRA”, which “soluble on expression in E. coli” value is on record?
A: Its value is “soluble”.

Q: With “MSWIPFKIGQPKKQIVSKTVERDFEREYGKLQQLEEQTKRLQKDMKKSTDADLAMSKSAVKISLDLLSNPLCEQDQDFLRMVTALDTAMKRMDAFNQEKVNQIQKTVIEPLKKFGSIFPSLNMAVKRREQALQDYGRLQAKVEKYEEKEKTGPVLAKLHQAREELRPVREDFEAKNKQLLDEMPRFYNSRLDYFQPSFESLIRAQVIYYSEMHKIFGDLTQQLDQPGHSDEHRERENETKLSELRALSIVADD” as the sequence, how does the “soluble on expression in E. coli” value read?
A: Its value is “not soluble”.

Q: For “MARIRARGSACPSQCSCSGTTVDCSGKSLASVPTGIPTTTQVLYLYDNQITKLEPGVFDRLTQLTRLDLDNNQLTVLPAGVFDKLTQLTQLSLNDNQLKSIPRGAFDNLKSLTHIWLLNNPWDCACSDILYLSRWISQHPGLVFGYLNLDPDSARCSGTNTPVRAVTEASTSPSKCPG”, which “soluble on expression in E. coli” value is on record?
A: The value was “soluble”.

Q: With “MNFIIEPGSLADIDELERLYDELNDHLSATINYPGWIKGIYPVRENAAAGVDDNSLFVARCDGRIAGSVILDHQPEKAYENIVWKIDADYSYIFVVRTFVVHPSFLQMGVGHALMDFSLELALKSEMKSIRLDVYEKNLPAISLYEKCGFEYIDTVDLGLGHYGLDWFKLYEKVILEHHHHHH” as the sequence, how does the “soluble on expression in E. coli” value read?
A: The value was “soluble”.

Q: For “MKTIKDWQINICLATYNGQKYLRQQLDSIIQQGYTDWICLIRDDGSTDDTVAIIKEYVNRDSRFIFINSNDDRKLGSHRSFYELVNYKKADFYVFSDQDDVWKENRLERYLEEAEKFNQELPLLVYSNWTSVDEKLTVLKEHNPATVIQEQIAFNQINGMVIMMNHELAKLWEYRQIGAHDSYVGTLAYAVGNVAYISDSTVLWRRQVGAESLNNYGRQYGVATFWQMINTSFDRASLIFAQVSDKMSLERKLFFSRFIELKNANLMRRIYLLSKLKLRRKSLKETVAMTILLLTGYGKPKALEHHHHHH”, which “soluble on expression in E. coli” value is on record?
A: The value was “soluble”.

Q: With “MMTADAGICRPFKTKPARTIFGRFPARTVCLCASAIWTAAKSRCGWTAGVPSSLPTLPHPANAIPPNTVCSETQPSGTRKAAKPFSALPMPTAIRSKLPAAPVKRGSLFEPPSRFFGRFFVSDGRFFVSDLFCSSASGRVRAA” as the sequence, how does the “soluble on expression in E. coli” value read?
A: Its value is “not soluble”.

Q: Which “soluble on expression in E. coli” value does the source give for “MGSDKIHHHHHHMSTLDQSGTFHLAGRNIRRLGYGAMQLAGKGVFGPPKDREEAIAVVREAVDSGVNHIDTSDFYGPHITNQIIREALHPYADDLLIVTKVGATRGEDASWNAAFSKEELTQAVHDNLRNLGKEVLDVVNLRAMFDVHGPAEGSLAAPLEVLADLQRQGLIRHIGVSNVTPRQITEAGEIVEIVCVQNQYNLAHRQDDALIDTLAAQGIAYVPFFPLGGFSPLQSTVLSDVATQLDASPLQVALAWLLKRSSNILVIPGTSSRAHLRQNLAAASLDLPDSAMTALAAIGG” here?
A: Its value is “not soluble”.

Q: Which “soluble on expression in E. coli” value does the source give for “MAHHHHHHMLKFRERLSKNCLPAFNLELVYQCAERALEEELNETCSAAKCVPMSGISERIFVGTWRDAADEKLLRQMCITHTLNVARELVDTEEMHRVESVPFVTSKSIPLSDSLDEDIVHHFEDAFEFIRGATRNGRILVYCRRGMSRSAAIVVAYLMESEGMSFCDAHNDVKDKRPCISLNLAFLQRLQEYEEHLEKVRAAARTN” here?
A: Its value is “not soluble”.

Q: With “MGSDKIHHHHHHMMTSTPRLLQAIQQTTTAILKTNLVGIYLHGSYVLGSYNEQVSDLDYLIVVRRSLTLAEKRQLMTATITQLWPLAPHKGLEFHVLLLSATQHFVHPCPFDFHFSKYHYEDYQRTPLAYLKAMHGTDPDLAAHLTILQAAGQVLLGPAITTVFGPIPAVAYWDSIKSDIANAETAIVQLPMYTVLNLCRVRAYQQDQLIISKQAGGEWGLQQLPTQWHPLIRQALAAYAGQQDEQVIRWSRPNLVAFARIMLAELGLKSE” as the sequence, how does the “soluble on expression in E. coli” value read?
A: Its value is “not soluble”.

Q: Which “soluble on expression in E. coli” value does the source give for “MSLDGKPLADKMRPTTLNNYMGQNKVLGENTMLRNLLQANDIPSIILWGPPGCGKTTLAHIIAKNAQKSSSRFVTLSATSASTSDVREFIKQAQNEQRLFKRKTILFVDEIHRFNKMQQDTFLPHVECGTITLIGATTENPSFQVNTALLSRCRVIVLEKLSVEAMETILMRAVDSLGLKVLKDGEQLVGSSSDVSETSVYVEEKALTTLAHLCDGDARTGLNGLQLSVQASLAAEKDPIKQGIVIKEEHIKEGLQRSHILYDRAGEEHYNCISALHKSMRGSDKNASLYWLGRMLEGGEDPLYVARRLVRFASEDIGLADPQALTQAVSTYQACHFIGMPECDVILAQCVMYMACAPKSVTVYSAYNKVKNCLKNHKGPLPPVPLHLRNAPTKLMKGLGYGKGYKYNPNFSEPVEQDYMPEEMKGVTEGHHHHHH” here?
A: The value was “not soluble”.

Q: For “MQRNLSHIISQATSAPLLLEPAYARVFFCALGRESGINSLHIPGNNESLDQSDMALVTGDFMATGKPQARFYQVVNGIAVLPVTGTLVHKLGGMRPFSGMTGYDGVTARLQQAVSDPEVKGILLDIDSPGGQAAGAFDCADMIYRMREQKPVWALANETACSAAMLLAAACSHRLVTQTSRMGSIGVVMAHTSYAEKLKQEGIDITLIYSGAHKADLTPSQKLPESVYADYQQRMDEARKMFAEKVARYTGLSVDAVMATEAAVYDGQAIITTGLADGMVNAADAIGVMAEAINSNKTGGTMPELSAADAVTQENQRVMGILGCPEARGHEALAQMLAGQPGMSVAQAKSILAAAAPADTTSTADRILALEEAGGRETLAQTLAAMPEMTVEQARTILAASPIAAATSLHDAVMALDEAKGREELAEKLAVMPGMTTDQARDLLAAAPDKSGNAGLSMNNAFDAFMQSHSPGPISGGKGHSNDTETTLLMSIPGTSATLEHHHHHH”, which “soluble on expression in E. coli” value is on record?
A: Its value is “not soluble”.

Q: With “MSLASVQDLGKVEQAAPAQKLTVTIALSLRDRDAAARYLQEVHTPSSPNYHKFLTPSEFRARYAPTEASLAKVAARLQAAGLSVKRIGSTLLQVSGPAATVQKAFGAEVHVFQNKSVVQGAAARYTAPVRASTPGIDLSDVQAVIGLDSRPHFRPHLRQLPSHLQASMDKSASAVTNGNAPGKWTVTDLARHYNITPLYNKGIHGQGATIGIVTLASFTPSDAFQYWSSIGLATDPNRLTVVDIDGGPGAPSDDGGSSETTLDVEQSGGIAPDAKIIVYQAPNTTQGFVDAFAKAIESNAADTLSVSWGEWEWFDQQSQAVNPVNGKSANVLQTYHDLFLQAALQGQTMFAASGDSGAYDVNRAAPLPQYNKVLSVDSPANQQFITAAGATTVPTTLTFHPNGKEMKIKIPTERAWGWDYLNGLCKALGKDPVACGTFPVGDGGGVSSFIGRPFYQNWLPGMQNSPAGQQLVDSSQNPPQVIATLPANFKGRNVPDISMNGDPETGYVVYYTSSKTGFSIQTNNGGTSFVAPQLAGITALLNQSLGGRLGLLNFSLYGLVATGHGYQGFGRHGAPLRDITAGNNWGYNAHRGYDQATGVGAPDVANLDAALRRYFWFEGHHHHHH” as the sequence, how does the “soluble on expression in E. coli” value read?
A: Its value is “not soluble”.

Q: Which “soluble on expression in E. coli” value does the source give for “GPGSMEERKTASGSAYYLPSPLLLSQNQGEERVKFVVVSGGVCSSLGKGVTTSAIGALLHASGYRVCSIKIDPYINIDAGLMSPYEHGEVYVLEDGGEADLDLGNYERWMSVHLTRDHNITTGKMYQKLLTKERAGGFLGKTVQLVPHFTNEVVNHIFKIC” here?
A: The value was “not soluble”.

Q: For “MSLARSLNNQRSRLVALVVNAIGNPCEAEEQQLLVHRLQARQLLPIILCCADHSDRLQLMRLASTYQVDHVVVFSDMVSMQDAVDIFHTTKPIIVSFEPLENESVSSIRIDGAEAADEIIDKIVRDGKKRFAYLSGTNSSWIDKLRRKWFADALAKRGLAFEAQAFGDYSYDSGFKEAVLLLHRDKVDAIICGNDVMAIGARDAARRVLGKNTPDDIAIVGQDGIAMAAWDCNDLTTLSLDHVAFIDAVVELIERHDAEVEGPHSITLTCTARWGSEGHHHHHH”, which “soluble on expression in E. coli” value is on record?
A: Its value is “not soluble”.

Q: For “MAQLENQILETLKPLIDANTGKSYVAAKNVKNLKCGDAEISLDVVLAYPAKSQFDAVRQQFEAALAPLAEGRAIKIAVSAQIVSHSAQRGVPLLPGVKNVIAVASGKGGVGKSTTAANLALALADEGARVGLLDADIYGPSQPLMMGLQGQRPETADGKLTPLSNHGIQTMSIGYLVDADQAMVWRGPMVSQALQQLLNDTRWDDLDYLVIDMPPGTGDVQLTLSQKVPVTGALIVTTPQDIALLDARKGVTMFQKVGVPILGLVENMAIHVCSNCGHAEHIFGEGGAVKMAQDFGVELLGSLPLDLAIRQAVDEGRPSVAADPSGKPAELYRAIARRVAVKVGEKAQDFSGKFPKIVIQNNLEHHHHHH”, which “soluble on expression in E. coli” value is on record?
A: Its value is “not soluble”.

Q: For “MSVTEHKKQAPKEVRCKIVTISDTRTEETDKSGQLLHELLKEAGHKVTSYEIVKDDKESIQQAVLAGYHKEDVDVVLTNGGTGITKRDVTIEAVSALLDKEIVGFGELFRMISYLEDIGSSAMLSRAIGGTIGRKVVFSMPGSSGAVRLAMNKLILPELGHITFELHRQ”, which “soluble on expression in E. coli” value is on record?
A: The value was “soluble”.

Q: Which “soluble on expression in E. coli” value does the source give for “MGDGAVKQGFLYLQQQQTFGKKWRRFGASLYGGSDCALARLELQEGPEKPRRCEAARKVIRLSDCLRVAEAGGEASSPRDTSAFFLETKERLYLLAAPAAERGDWVQAICLLAF” here?
A: Its value is “soluble”.

Q: For “MPDVPETVGTPDGSTEFEHRPTTDQSFENALAKARNGTRLTVDDAVELFTTGTDRDGIDHDRKEQVLEAADRRRAEVVGDEVTFVANLNNNVTTACNTGCLFCNFKDRSEQFRSDYQEDHGGFTKTPSESRQIVQDALDRGIYEVCSVSGLHPALALDTEHREILETSDRGDLNYRSPDEYETDPATYCEQLDAMNVGDIHLHSMTPEEAYHARRGTDWSYEEVFSRLQDAGLDSVPGTAAEILVDEVRDVICPGKIRTDEWLEAMAAAASVGLDMTSTMMYGHVENEYHRALHLQRIRDLQDRTGAITEFVPLSFVHEETPLYERGMVDGGATVDEDELMIAVSRLFLDNVDHIQASWVKYGDTQGLKMLTCGADDFMGTILSEEITKRAGGDYGEFRSFQEYADMITAIGRTPVERSTDYEQRRVIDPDADVLGPQLGPRADGTPLLD”, which “soluble on expression in E. coli” value is on record?
A: Its value is “not soluble”.

Q: With “DVRGMSQSVGAVVRGFATADPHVRIAGVILNKVGTDRHAEVCREAVEAVGVRVLGAIPRVDHAEVPSRHLGLITSVELDAAEDAVAAMATMVEEHVDLNALIELADCAYNGPAWDPALAMGMSDAEALDN” as the sequence, how does the “soluble on expression in E. coli” value read?
A: Its value is “not soluble”.

Q: For “MSLVVEHNPFAKRYRKGMKRIALVYPNRYVGGITNLGLQYIYARINESDAICERFYADVFDGLRSIESATPLSEFDVALFSLQYETDYFKAVEILKRSGFKGLKIAGGPCVMENPQPLMDYFHAFFIGEVEGYVEELIHAKNAEELSGIPGVFTGREEKVKRVYAKLDRHIEKEIIGEGAYGRCFLLEIGRGCVRRCRFCIVRQIYFPPRWRKKEMLPEIGEEKVAIIAPSPSDHPQFKEILQHYVEQGKEVSPSSVRADTLDEELADLLKKAGVKTLTIAPETASDKLQEVINKGIGDEEVMRAAELASTRFEKVKLYYMVGLPGESFEDVKAILEQALRVKKLVGKVEISVNPLVPKPHTPLQWMGFGGEEELREGISHLKKKLEYLRREARRAGIGADVSGFKEFAIQTILSRGDREVAEMLEGASYRKFEKYLKPINPDSPLPWDFIDHGYRKSTLLKEYDKIKKILEGHHHHHH”, which “soluble on expression in E. coli” value is on record?
A: The value was “not soluble”.
